Measurements taken from patent US20190345228A1 (DUKE UNIVERSITY, published 2019).

Biological target: TNF-related apoptosis-inducing ligand receptor 2 (TRAILR-2) (human, UniProt O14763 56-440)
Test: cell-based or functional assay

B1: ELPa-(Tn3)4 (designed binder)
chain: VGVPGVGVPGVGVPGVGVPGVGVPGVGVPGVGVPGVGVPGVGVPGVGVPGVGVPGVGVPGVGVPGVGVPGVGVPGVGVPGVGVPGVGVPGVGVPGVGVPGVGVPGVGVPGVGVPGVGVPGVGVPGVGVPGVGVPGVGVPGVGVPGVGVPGVGVPGVGVPGVGVPGVGVPGVGVPGVGVPGVGVPGVGVPGVGVPGVGVPGVGVPGVGVPGVGVPGVGVPGVGVPGVGVPGVGVPGVGVPGVGVPGVGVPGVGVPGVGVPGVGVPGVGVPGVGVPGVGVPGVGVPGVGVPGVGVPGVGVPGVGVPGVGVPGVGVPGVGVPGVGVPGVGVPGVGVPGVGVPGVGVPGVGVPGVGVPGVGVPGVGVPGVGVPGVGVPGVGVPGVGVPGVGVPGVGVPGVGVPGVGVPGVGVPGVGVPGVGVPGVGVPGVGVPGVGVPGVGVPGVGVPGVGVPGVGVPGVGVPGVGVPGVGVPGVGVPGVGVPGVGVPGVGVPGVGVPGVGVPGVGVPGVGVPGVGVPGVGVPGVGVPGVGVPGVGVPGVGVPGVGVPGVGVPGVGVPGVGVPGVGVPGVGVPGVGVPGVGVPGVGVPGVGVPGVGVPGVGVPGGAIEVKDVTDTTALITWAKPWVDPPPLWGCELTYGIKDVPGDRTTIDLQQKHTAYSIGNLKPDTEYEVSLICFDPYGMRSKPAKETFTTGGGGSGGGGSGGGGSGAIEVKDVTDTTALITWAKPWVDPPPLWGCELTYGIKDVPGDRTTIDLQQKHTAYSIGNLKPDTEYEVSLICFDPYGMRSKPAKETFTTGGGGSGGGGSGGGGSGAIEVKDVTDTTALITWAKPWVDPPPLWGCELTYGIKDVPGDRTTIDLQQKHTAYSIGNLKPDTEYEVSLICFDPYGMRSKPAKETFTTGGGGSGGGGSGGGGSGAIEVKDVTDTTALITWAKPWVDPPPLWGCELTYGIKDVPGDRTTIDLQQKHTAYSIGNLKPDTEYEVSLICFDPYGMRSKPAKETFTTGGGGSGGGGSGGGGS
  EC50, cell viability assay on Colo205 cells (concentration required to kill 50% of the cells): 80 pM

B2: ELPa-(Tn3)6 (designed binder)
chain: VGVPGVGVPGVGVPGVGVPGVGVPGVGVPGVGVPGVGVPGVGVPGVGVPGVGVPGVGVPGVGVPGVGVPGVGVPGVGVPGVGVPGVGVPGVGVPGVGVPGVGVPGVGVPGVGVPGVGVPGVGVPGVGVPGVGVPGVGVPGVGVPGVGVPGVGVPGVGVPGVGVPGVGVPGVGVPGVGVPGVGVPGVGVPGVGVPGVGVPGVGVPGVGVPGVGVPGVGVPGVGVPGVGVPGVGVPGVGVPGVGVPGVGVPGVGVPGVGVPGVGVPGVGVPGVGVPGVGVPGVGVPGVGVPGVGVPGVGVPGVGVPGVGVPGVGVPGVGVPGVGVPGVGVPGVGVPGVGVPGVGVPGVGVPGVGVPGVGVPGVGVPGVGVPGVGVPGVGVPGVGVPGVGVPGVGVPGVGVPGVGVPGVGVPGVGVPGVGVPGVGVPGVGVPGVGVPGVGVPGVGVPGVGVPGVGVPGVGVPGVGVPGVGVPGVGVPGVGVPGVGVPGVGVPGVGVPGVGVPGVGVPGVGVPGVGVPGVGVPGVGVPGVGVPGVGVPGVGVPGVGVPGVGVPGVGVPGVGVPGVGVPGVGVPGVGVPGVGVPGVGVPGVGVPGVGVPGVGVPGAIEVKDVTDTTALITWAKPWVDPPPLWGCELTYGIKDVPGDRTTIDLQQKHTAYSIGNLKPDTEYEVSLICFDPYGMRSKPAKETFTTGGGGSGGGGSGGGGSGAIEVKDVTDTTALITWAKPWVDPPPLWGCELTYGIKDVPGDRTTIDLQQKHTAYSIGNLKPDTEYEVSLICFDPYGMRSKPAKETFTTGGGGSGGGGSGGGGSGAIEVKDVTDTTALITWAKPWVDPPPLWGCELTYGIKDVPGDRTTIDLQQKHTAYSIGNLKPDTEYEVSLICFDPYGMRSKPAKETFTTGGGGSGGGGSGGGGSGAIEVKDVTDTTALITWAKPWVDPPPLWGCELTYGIKDVPGDRTTIDLQQKHTAYSIGNLKPDTEYEVSLICFDPYGMRSKPAKETFTTGGGGSGGGGSGGGGSGAIEVKDVTDTTALITWAKPWVDPPPLWGCELTYGIKDVPGDRTTIDLQQKHTAYSIGNLKPDTEYEVSLICFDPYGMRSKPAKETFTTGGGGSGGGGSGGGGSGAIEVKDVTDTTALITWAKPWVDPPPLWGCELTYGIKDVPGDRTTIDLQQKHTAYSIGNLKPDTEYEVSLICFDPYGMRSKPAKETFTTGGGGSGGGGSGGGGS
  EC50, cell viability assay on Colo205 cells (concentration required to kill 50% of the cells): 0.78 pM

B3: (Tn3)6 (designed binder)
chain: GAIEVKDVTDTTALITWAKPWVDPPPLWGCELTYGIKDVPGDRTTIDLQQKHTAYSIGNLKPDTEYEVSLICFDPYGMRSKPAKETFTTGGGGSGGGGSGGGGSGAIEVKDVTDTTALITWAKPWVDPPPLWGCELTYGIKDVPGDRTTIDLQQKHTAYSIGNLKPDTEYEVSLICFDPYGMRSKPAKETFTTGGGGSGGGGSGGGGSGAIEVKDVTDTTALITWAKPWVDPPPLWGCELTYGIKDVPGDRTTIDLQQKHTAYSIGNLKPDTEYEVSLICFDPYGMRSKPAKETFTTGGGGSGGGGSGGGGSGAIEVKDVTDTTALITWAKPWVDPPPLWGCELTYGIKDVPGDRTTIDLQQKHTAYSIGNLKPDTEYEVSLICFDPYGMRSKPAKETFTTGGGGSGGGGSGGGGSGAIEVKDVTDTTALITWAKPWVDPPPLWGCELTYGIKDVPGDRTTIDLQQKHTAYSIGNLKPDTEYEVSLICFDPYGMRSKPAKETFTTGGGGSGGGGSGGGGSGAIEVKDVTDTTALITWAKPWVDPPPLWGCELTYGIKDVPGDRTTIDLQQKHTAYSIGNLKPDTEYEVSLICFDPYGMRSKPAKETFTTGGGGSGGGGSGGGGS
  EC50, cell viability assay on Colo205 cells (concentration required to kill 50% of the cells): 1.6 pM

B4: (Tn3)4 (designed binder)
chain: GAIEVKDVTDTTALITWAKPWVDPPPLWGCELTYGIKDVPGDRTTIDLQQKHTAYSIGNLKPDTEYEVSLICFDPYGMRSKPAKETFTTGGGGSGGGGSGGGGSGAIEVKDVTDTTALITWAKPWVDPPPLWGCELTYGIKDVPGDRTTIDLQQKHTAYSIGNLKPDTEYEVSLICFDPYGMRSKPAKETFTTGGGGSGGGGSGGGGSGAIEVKDVTDTTALITWAKPWVDPPPLWGCELTYGIKDVPGDRTTIDLQQKHTAYSIGNLKPDTEYEVSLICFDPYGMRSKPAKETFTTGGGGSGGGGSGGGGSGAIEVKDVTDTTALITWAKPWVDPPPLWGCELTYGIKDVPGDRTTIDLQQKHTAYSIGNLKPDTEYEVSLICFDPYGMRSKPAKETFTTGGGGSGGGGSGGGGS
  EC50, cell viability assay on Colo205 cells (concentration required to kill 50% of the cells): 40 pM
